Reference: patent publication US20100111970A1 (published 2010)

Columns and labels:
[1] = target: T1, human nerve growth factor (NGF) (human, UniProt P01138 122-241); experiment: BIAcore SPR screening of Fab clones on immobilized human NGF
T1 construct: Immobilized on CM5 chip in BIAcore assays; also called human NGF; hNGF
Method: (§1) Affinities of anti-NGF Fabs and monoclonal antibodies were determined using the BIAcore3000™ surface plasmon resonance (SPR) system (BIAcore, INC, Piscaway N.J.). CM5 chips were activated with N-ethyl-N′-(3-dimethylaminopropyl)-carbodiinide hydrochloride (EDC) and N-hydroxysuccinimide (NHS) according to the supplier's instructions. Human NGF was diluted into 10 mM sodium acetate pH 4.0 and injected over the activated chip at a concentration of 0.005 mg/mL. Using variable flow time across the individual chip channels, two ranges of antigen density were achieved: 100-200 response units (RU) for detailed kinetic studies and 500-600 RU for screening assays. The chip was blocked with ethanolamine. […] HBS-EP buffer (0.01M HEPES, pH 7.4, 0.15 NaCl, 3 mM EDTA, 0.005% Surfactant […]) was used as running buffer for all the BIAcore assays.
(§2) For affinity screening experiments, each library was further paired with the corresponding CDR-grafted light or heavy chain (for example, the H1/H2 library was paired with CDR-grafted light chain), the antibody was expressed, and affinity to human NGF of the individual clones was screened using the BIACORE surface plasmon resonance (SPR) system (BIAcore, Inc. Piscataway, N.J.) according to the manufacturer's instructions and as described above. koff, kₒₙ and KD were determined. […]

[2] = target: T1, human nerve growth factor (NGF); experiment: BIAcore SPR; KD calculated from koff using kon 4e4 M^-1s^-1
Method: as §1, §2

T1 sequence (P01138 122-241 limits assumed): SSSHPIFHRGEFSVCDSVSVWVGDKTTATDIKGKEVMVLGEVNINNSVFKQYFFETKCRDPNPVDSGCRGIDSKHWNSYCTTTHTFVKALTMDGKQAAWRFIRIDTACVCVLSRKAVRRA

koff [1]: 0.00074 s⁻¹
Kd [2]: 18 nM
B1: light chain library clone L81 (Fab, V domains shown)
VH: QVQLQESGPGLVKPSETLSLTCTVSGFSLIGYDINWIRQPPGKGLEWIGMIWGDGTTDYNSALKSRVTISKDTSKNQFSLKLSSVTAADTAVYYCARGGYYYGTSYYFDYWGQGTLVTVS
VL: DIQMTQSPSSLSASVGDRVTITCRAFQAISNQLNWYQQKPGKAPKLLIYYTSRFHTGVPSRFSGSGSGTDFTFTISSLQPEDIATYYCQQSKTLPYTFGQGTKLEIKR
notes: Substitutions derived by comparing printed CDRs with the 8L2-6D5 control
